Reference: patent publication US20030182672A1

Experiments:
[1] = target: HER-2 protein (also designated neu and erbB-2), endogenous in human MDA-MB-468 cells (human) (UniProt P04626); test: FACS, fixed and permeabilized parental MDA-MB-468 cells, antibody at 1/100, Alexa Fluor 488 secondary
[2] = target: HER-2 protein (also designated neu and erbB-2), endogenous in human MDA-MB-468 cells (human) (UniProt P04626); test: FACS, MDA-MB-468 cells, irrelevant IgG2b control at 1/100, Alexa Fluor 488 secondary; background

Which results are given for “mouse Anti-erbB2 monoclonal antibody (Transduction Laboratories, Cat. No. E19420, an IgG2b isotype)”?
Geometric mean Fluorescence [1]: 1090; Mean Fluorescence [1]: 1220; Median Fluorescence [1]: 1180

Which Geometric mean Fluorescence [2] does the source give for “irrelevant primary antibody MART-1, an IgG2b antibody (NeoMarkers)” here?
Its Geometric mean Fluorescence is 122.

And the Mean Fluorescence [2]?
The Mean Fluorescence was 137.
